{"source": "the DeepSol protein solubility set", "data": [{"assay": "soluble on expression in E. coli; label from the status in PepcDB or PDB records", "values": [{"sequence": "LWVYPARKPRGKAIIMCPGGGFNQIASDHEGRDFAAWFNNQGITYAVLNYRMPHGDVEVIREDIREAIRLIRRQSAEWGIHQLGVMGASIGGYIAATAATLYTGTDRPDFQVLLYPVISMTDRLTHWPSRERMLGETISEGLKETLSLELHVTADTPPTFIVLAEDDQAVSPLNSIVYYTALLKHGVSAGLHIYPEGGHSFGFRDSFIYKELWTDELQKWL", "soluble on expression in E. coli": "not soluble"}, {"sequence": "MGHHHHHHSHMRIVMKFGGVSVKDGENIYHCANLVKKFSEGNEVVVVVSAMQGVTDALLKAAHRCCSEPSAGFIKMFIADMMKRHYEAIEYAVRNDEIKAKVIAAVERLLDELEKVLLGISYLGELTRRSEDYIVSFGERLSAPIFSAALLSLGVDSVALTGGDAGIITDRNFGRAKPLPGVYTTIRNRLEPLLTIKKTIPVVTGFIGATDDGSITTLGRGGSDYTATILAAALDADEVWLWKEVDGIMTCDPKYVPNARVIPEISYQEAMELSHFGAKILHPRALEPVMRKNIPVRIKN", "soluble on expression in E. coli": "not soluble"}, {"sequence": "MAHHHHHHSLRVVSGEFGGRPLKTLDGKITRPTSDKVRGAIFNMIGPYFNGGRVLDLFAGSGGLAIEAVSRGMSAAVLVEKNRKAQAIIQDNIIMTKAENRFTLLKMEAERAIDCLTGRFDLVFLDPPYAKETIVATIEALAAKNLLSEQVMVVCETDKTVLLPKEIATLGIWKEKIYGISKVTVYVNEG", "soluble on expression in E. coli": "soluble"}, {"sequence": "MKQVAVISGKGGTGKTTFSATIHALEGGVVADCDVDAPNLHILLKPQILKAEDFIASKKARIMPEKCSSCGLCYDLCRFGAVVAEDGYYVDEKKCEGCAFCFNVCPERAIEMENVKTGDLYVSKTEWGYFVHARLKPGEENTGRLVTEVKNRAKEIAEESNAEFLIVDSAPGVGCPVMASLTGVDAAIIVTEPTVSGLSDMLRILELCEHFRIRPFVVVNKFDLNVNIASEIESYCSENGVEFAGRVPFDKAIPEQIANLNFPFSGKAADKMVEIWKKLREVLLEHHHHHH", "soluble on expression in E. coli": "soluble"}, {"sequence": "MANSSRRTTAFSEAEKAAVYRALLTRRDIRHFRPDPIPEEVLERLYQAFHAAPSVGLTQPWAIVEIRERATKERVFALHQEARARERALFQGKAQRVYDRLRLEGLLEAPLHLAVFQRPVARSLGHHTMPETLAYSVVLAVGNLWTAARAEGIGVGWVSILEPEAVARLLGAPPDYRLLAYLCLGYPRAWPDEPLLERAGWRQREPLLRYRERFP", "soluble on expression in E. coli": "soluble"}, {"sequence": "MAHHHHHHMLEDPNFSDFTGLHKSVTALTAANSDLARYGNELHKMILRYQLEVLSGTCNYVEVLSLAAYNGNLTAAEYVNNIEPVILGDDSVSVDIDTRTNTLSFRDSSKAKMLSYFNKIVANVDTVPASSLATTSGRYSDFTHVAASSSKREVMPLAADLDAARARSTSIYALQKACMNSKAERIEEAKKSEDKKRERAVAERREQEEAKKEETQKAYIRKLYAEYNERQRQERGKEVLRKLRIKYPGFKVDESIVYRSAAGFEDELTRLLAAFKRRGVDNDRKEILQANLYERALRALEIPKRKDYEAQNAERTRAERAAARENYLAEHRREYDRRQNEKAVLSKFLHDADEFERTWRKRANIDKPSKRDEQQRLLEEEMRRLGGE", "soluble on expression in E. coli": "not soluble"}, {"sequence": "MSTSAGSSGAAASEPTTAKSLTYSETMNDLRKGSLFGRQKESLATTDGGPQPSSLDDKSQQFKNPIESDKPGPSTEPGRSAKIEQEAPAPTLKKSETPPAFGLSGVVKKVPSVYFPIFNKLGVKIPGFLPSLRETKINAPHIVYDVRRLRLLQKRQRPIKQLWLRLQFQLRFQMQLLKAQTKSSRVPDNASAVMWLHYIEVIEDHCTADC", "soluble on expression in E. coli": "not soluble"}, {"sequence": "MPKTQSAAGYKAGVKDYKLTYYTPDYTPKDTDLLAAFRFSPQPGVPADEAGAAIAAESSTGTWTTVWTDLLTDMDRYKGKCYHIEPVQGEENSYFAFIAYPLDLFEEGSVTNILTSIVGNVFGFKAIRSLRLEDIRFPVALVKTFQGPPHGIQVERDLLNKYGRPMLGCTIKPKLGLSAKNYGRAVYECLRGGLDFTKDDENINSQPFQRWRDRFLFVADAIHKSQAETGEIKGHYLNVTAPTCEEMMKRAEFAKELGMPIIMHDFLTAGFTANTTLAKWCRDNGVLLHIHRAMHAVIDRQRNHGIHFRVLAKCLRLSGGDHLHSGTVVGKLEGDKASTLGFVDLMREDHIEADRSRGVFFTQDWASMPGVLPVASGGIHVWHMPALVEIFGDDSVLQFGGGTLGHPWGNAPGATANRVALEACVQARNEGRDLYREGGDILREAGKWSPELAAALDLWKEIKFEFETMDKL", "soluble on expression in E. coli": "soluble"}, {"sequence": "MGSDKIHHHHHHMIVLFVDFDYFYAQVEEVLNPSLKGKPVVVCVFSGRFEDSGAVATANYEARKFGVKAGIPIVEAKKILPNAVYLPMRKEVYQQVSSRIMNLLREYSEKIEIASIDEAYLDISDKVRDYREAYNLGLEIKNKILEKEKITVTVGISKNKVFAKIAADMAKPNGIKVIDDEEVKRLIRELDIADVPGIGNITAEKLKKLGINKLVDTLSIEFDKLKGMIGEAKAKYLISLARDEYNEPIRTRVRKSIGRIVTMKRNSRNLEEIKPYLFRAIEESYYKLDKRIPKAIHVVAVTEDLDIVSRGRTFPHGISKETAYSESVKLLQKILEEDERKIRRIGVRFSKFIEAIGLDKFFDT", "soluble on expression in E. coli": "not soluble"}, {"sequence": "MGLDISDETLKIQKKKENENRVIILMIPGNPGNEGFYAHFGREVLQNLIKKDEDEQKNLKNQYLFYTVSSLNHVRMPDHLKDDGEHRNHDRISLEEQVNHKLSFVKEHLPRGKQLYILGHSIGSYMMLRIIPEVIKEGFHVEKAVGLFPTIVHMANSPNGKRLHGTLATLNHHDWLTKTICWWVDYLPNSIKKFLVGLNLRHPNTPPEIVDAAVELVHMDVFRNIVHMSNDELDIVLDLDERLLEKQDVVHFYYGLKDGWCPVQHGYSMRDRLGEEQVTLDEDNCEHAFVISEGDIMARNVIKYFD", "soluble on expression in E. coli": "not soluble"}, {"sequence": "MKSACSIITASIVLYKSKPDIIRDVITSFFSDTVTKKKLILIDNSPTDSLRVLQEERPEDIQYFFNNRNIGFGSAHNIGIREAARFNPSYHLILNPDVQFGPEVVPTLASYMDENPDIGLLMPQVYYPNGELQHLCKLFPRPWDVMLRRFVPYRSYRERNNERFELRNWSYDTIQDIPSLSGCFMFARMDILREVGGFDERFFMYAEDLDLCRRIGQVSRTVFFPKVSIMHTYAKGSYHLEHHHHHH", "soluble on expression in E. coli": "soluble"}, {"sequence": "MSKFDTSALEAFVRHIPQNYKGPGGVVAVVKDGEVVLQHAWGFADLRTRTPMTLDTRMPICSVSKQFTCAVLLDAVGEPELLDDALEAYLDKFEDERPAVRDLCNNQSGLRDYWALSVLCGADPEGVFLPAQAQSLLRRLKTTHFEPGSHYSYCNGNFRILADLIEAHTGRTLVDILSERIFAPAGMKRAELISDTALFDECTGYEGDTVRGFLPATNRIQWMGDAGICASLNDMIAWEQFIDATRDDESGLYRRLSGPQTFKDGVAAPYGFGLNLHETGGKRLTGHGGALRGWRCQRWHCADERLSTIAMFNFEGGASEVAFKLMNIALGVSSSEVSRVEADSAWFGSWLDDETGLVLSLEDAGHGRMKARFGTSPEMMDVVSANEARSAVTTIRRDGETIELVRASENLRLSMKRVKGEAKHDIIGRYHSDELDADLLLVSEGGAIYGAFEGFLGKSDMYPLYSVGSDVWLLPVQRSMDAPSPGEWKLVFRRDDKGEITGLSVGCWLARGVEYRRVQP", "soluble on expression in E. coli": "soluble"}, {"sequence": "GPLGSEAQSEKEEAPKPLHKVVVCVSKKLSKKQSELNGIAASLGADYRWSFDETVTHFIYQGRPNDTNREYKSVKERGVHIVSEHWLLDCAQECKHLPESLYPHTYNPK", "soluble on expression in E. coli": "soluble"}, {"sequence": "MSLTDAILYELHIRDATIHPGSGVSKKGTYKGLMEEGTTGRNGTLTGLSHIKDLGVTHVELLPLYCFGGVDEANPSSAYNWGYNPLYYNAPTGYYATNPSDPYNRIVECKQLIETFHEHGIRVIIDVVYNHVYERELSSFEKLVPGYYFRHGENGMPSNGTGVGNDIASERKMMRKFIVESILYWLTEYNVDGFRFDLMGILDVDTINIIEKEVRNIKRDALLLGEGWDLQTPLPLEEKATLNNAKKMPHIAQFNDQFRDGIKGSTFHINKRGFAFGGYVDCNHLQYIASGSLLSMKETGLFLEPVQSINYVECHDNMTMWDKLMRSNEESEEILKKRHLLATAMVILSQGIPFLHAGQEFYRTKQGNENSYNANDEINQLDWDRKEKEIETVNYIKGLIAIRKEHGAFRLQNADLIKKHMTFLQTSPEVLAYHLEHVESFGPWKEIVVLFNSSLEAKTVQLPKEETWHVLVNEKQAKIEPISSFRGKELRLAPISTYILTIMEGHHHHHH", "soluble on expression in E. coli": "not soluble"}, {"sequence": "MVYLLDLSGVYCEPVEPRLLRLLAEESGEPVFYLSEAFYALLPRLKAEGAQALEALFPGASRLYPKAFRPRGLAFPEPFHLVSDLPPPEGVLAYHAPDKLEALALALEALGLAPGEAVYWDDNPLWVERARGLGVRAELFLP", "soluble on expression in E. coli": "soluble"}]}]}
